Measurements as given in patent publication US20220162308A1 (Novartis, published 2022).
Read-outs that look alike come from different tables or passages of the source.

Experiments:
Human CD48 on cells [1] = target: T1, Human CD48 on cells (human, UniProt P09326 27-220); test: cell-based or functional assay
T1 sequence: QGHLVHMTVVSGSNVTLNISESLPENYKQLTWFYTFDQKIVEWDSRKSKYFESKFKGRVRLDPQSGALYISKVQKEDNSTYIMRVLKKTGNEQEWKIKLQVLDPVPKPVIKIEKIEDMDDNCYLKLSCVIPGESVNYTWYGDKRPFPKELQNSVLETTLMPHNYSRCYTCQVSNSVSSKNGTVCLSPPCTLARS

[2] = target: T2, Human CD48 (soluble recombinant, SPR analyte) (human, UniProt P09326 27-220); test: SPR Biacore T200, antibody captured on protein A chip, soluble CD48 as analyte, 25 C, 1:1 model
T2 construct: also called Human CD48 antigen; not shown: C-terminal tag (hFc1P, APP6-Avi or His) is not specified for the analyte
T2 sequence: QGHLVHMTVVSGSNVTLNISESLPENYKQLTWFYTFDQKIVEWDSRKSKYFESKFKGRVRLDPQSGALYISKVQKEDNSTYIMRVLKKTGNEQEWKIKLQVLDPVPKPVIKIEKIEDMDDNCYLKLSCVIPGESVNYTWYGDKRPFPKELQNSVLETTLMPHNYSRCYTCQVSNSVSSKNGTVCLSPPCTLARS
Method: (§1) HBS-EP+pH 7.4 containing 10 mM HEPES, 150 mM NaCl, 3 mM EDTA and 0.05% (v/v) surfactant P20 (Teknova, ordering #H8022) was used as running buffer as well as for sample dilution.
(§2) The anti-CD48 antibodies were diluted at 5 μg/ml and injected on flow cells 2 and 4 for 20 sec at 10 μl/min. Capture level for all antibodies was 370-440 RU. Flow cells 1 and 3 were left blank (no antibody captured) and used as a reference surface. Human and cynomolgus CD48 served as analytes in solution. […] After each cycle of antibody capture and analyte injection, the chip surface was regenerated with 10 mM Glycine-HCl pH 1.5 (Cytiva, ordering #BR100354) for 2×30 s at a flow rate of 50 μl/min. Three runs with duplicate measurements and buffer blank injections were performed. Measurements were executed at 25° C. and data collected at a rate of 10 Hz.
(§3) Data were evaluated using the Biacore 8K evaluation software. The raw data were double referenced, i.e. the response of the measuring flow cells was corrected for the response of the reference flow cells (no antibody captured), and in a second step the response of a blank injection (buffer) was subtracted. Finally, the sensorgrams were fitted by applying a 1:1 interaction model with a constant fit of RI (0) and a global fit for Rₘₐₓ. Kinetic rate constants (kₐ, kd) and equilibrium dissociation constants (KD) were calculated. Data were processed separately for each run. The generated values were used to calculate average values and standard deviations of the respective equilibrium dissociation constants and the kinetic rate constants.

[3] = target: T3, Cynomolgus CD48 (soluble recombinant, SPR analyte) (cynomolgus monkey (Macaca fascicularis), UniProt P09326 30-225 (human entry)); test: as above
T3 construct: also called cyno CD48; Cyno CD48; not shown: C-terminal tag (hFc1P, APP6-Avi or His) is not specified for the analyte
T3 chain: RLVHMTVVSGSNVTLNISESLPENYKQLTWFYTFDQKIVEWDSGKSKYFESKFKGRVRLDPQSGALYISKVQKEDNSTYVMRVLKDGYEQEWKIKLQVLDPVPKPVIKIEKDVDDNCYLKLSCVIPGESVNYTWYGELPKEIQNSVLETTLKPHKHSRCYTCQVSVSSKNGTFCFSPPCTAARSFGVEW
Method: as §1, §2, §3

[4] = target: T2, Human CD48 (soluble recombinant, SPR …); test: SPR Biacore T200, antibody captured on Protein A chip, soluble CD48 as analyte, 1:1 model, Exp 1
Method: (§4) Binding to human and cyno CD48 for the WT IgG and DAPA (D265A and P329A mutation) variant was assessed for affinity determinations using Biacore. Kinetic rate constants was performed via SPR using the Biacore T200 instrument (Cytiva, formerly GE Healthcare Lifesciences) as described below.
(§5) The Protein A capture method was utilized in order to determine kinetics for the antibodies. […] The human CD48 and cyno CD48 concentration started at 50 nM and 200 nM respectively, and were serially diluted at one part to one part for nine concentrations. Regeneration was performed at the end of each concentration washing with the Glycine pH1.5 (Cytiva, cat #BR100354).
(§6) Double reference subtraction was completed to generate the final data. The raw data was fitted to a 1:1 binding model, with parameter(s) Rmax set to local.

[5] = target: T3, Cynomolgus CD48 (soluble recombinant, …); test: as above
Method: as §4, §5, §6

[6] = target: T2, Human CD48 (soluble recombinant, SPR …); test: SPR Biacore T200, antibody captured on Protein A chip, soluble CD48 as analyte, 1:1 model, Exp 2
Method: as §4, §5, §6

[7] = target: T3, Cynomolgus CD48 (soluble recombinant, …); test: as above
Method: as §4, §5, §6

Human CD48 on cells [8] = target: T1, Human CD48 on cells; test: cell-based or functional assay; remark: listed apart in the source

B1: NY938 (antibody, human IgG1, kappa)
heavy: not shown
light: DIQMTQSPSSLSASVGDRVTITCKASQDVGTAVAWYQQKPGKVPKLLIYWASTRHTGVPSRFSGSGSGTDFTLTISSLQPEDVATYYCQQYSTYPITFGQGTKLEIKRTVAAPSVFIFPPSDEQLKSGTASVVCLLNNFYPREAKVQWKVDNALQSGNSQESVTEQDSKDSTYSLSSTLTLSKADYEKHKVYACEVTHQGLSSPVTKSFNRGEC
notes: also called anti-CD48-NY938-hIgG1_kappa (a-fuc); NY938-IgG
- IC50 (nM), cell proliferation/survival (CellTiter-Glo), KMS-21-BM, with anti-human Fc-VC-MMAE (Human CD48 on cells [1]): 0.008 nM
- IC50 (nM), cell proliferation/survival (CellTiter-Glo), KMS-27, with anti-human Fc-VC-MMAE (Human CD48 on cells [1]): < 0.001 nM
- IC50 (nM), cell proliferation/survival (CellTiter-Glo), NCI-H929, with anti-human Fc-VC-MMAE (Human CD48 on cells [1]): 0.004 nM
- Span (Amax), KMS-21-BM, with anti-human Fc-VC-MMAE (Human CD48 on cells [1]): 98.9
- Span (Amax), KMS-27, with anti-human Fc-VC-MMAE (Human CD48 on cells [1]): > 100
- Span (Amax), NCI-H929, with anti-human Fc-VC-MMAE (Human CD48 on cells [1]): 99.7
- Kd [2]: 0.5 nM
- koff [2]: 0.00013 s⁻¹
- kon [2]: 250000 M⁻¹ s⁻¹
- Kd [3]: 1.5 nM
- koff [3]: 0.00037 s⁻¹
- kon [3]: 250000 M⁻¹ s⁻¹

B2: NY938 DAPA (antibody, human IgG1, kappa, name in EU numbering)
heavy: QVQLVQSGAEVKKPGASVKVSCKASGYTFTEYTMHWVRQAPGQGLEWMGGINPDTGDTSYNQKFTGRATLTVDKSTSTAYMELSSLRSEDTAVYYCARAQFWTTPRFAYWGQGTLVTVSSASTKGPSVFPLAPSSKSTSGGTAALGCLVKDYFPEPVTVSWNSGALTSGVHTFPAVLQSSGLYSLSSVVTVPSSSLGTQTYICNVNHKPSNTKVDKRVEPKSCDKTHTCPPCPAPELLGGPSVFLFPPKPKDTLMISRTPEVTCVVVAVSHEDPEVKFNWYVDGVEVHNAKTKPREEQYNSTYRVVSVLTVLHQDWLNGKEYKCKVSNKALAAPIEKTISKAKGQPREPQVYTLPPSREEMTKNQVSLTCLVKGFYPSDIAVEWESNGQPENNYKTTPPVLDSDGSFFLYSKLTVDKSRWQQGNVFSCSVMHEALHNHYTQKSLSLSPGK
light: DIQMTQSPSSLSASVGDRVTITCKASQDVGTAVAWYQQKPGKVPKLLIYWASTRHTGVPSRFSGSGSGTDFTLTISSLQPEDVATYYCQQYSTYPITFGQGTKLEIKRTVAAPSVFIFPPSDEQLKSGTASVVCLLNNFYPREAKVQWKVDNALQSGNSQESVTEQDSKDSTYSLSSTLTLSKADYEKHKVYACEVTHQGLSSPVTKSFNRGEC
notes: Positions are EU numbers; also called NY938 DAPA IgG variant
- Kd [4]: 0.296 nM
- koff [4]: 0.000104 s⁻¹
- kon [4]: 352000 M⁻¹ s⁻¹
- Kd [5]: 1.07 nM
- koff [5]: 0.000289 s⁻¹
- kon [5]: 271000 M⁻¹ s⁻¹
- Kd [6]: 0.252 nM
- koff [6]: 0.000115 s⁻¹
- kon [6]: 456000 M⁻¹ s⁻¹
- Kd [7]: 0.774 nM
- koff [7]: 0.000316 s⁻¹
- kon [7]: 409000 M⁻¹ s⁻¹

B3: CD48A-CysMab-VC-MMAE (antibody, human IgG1, kappa)
heavy: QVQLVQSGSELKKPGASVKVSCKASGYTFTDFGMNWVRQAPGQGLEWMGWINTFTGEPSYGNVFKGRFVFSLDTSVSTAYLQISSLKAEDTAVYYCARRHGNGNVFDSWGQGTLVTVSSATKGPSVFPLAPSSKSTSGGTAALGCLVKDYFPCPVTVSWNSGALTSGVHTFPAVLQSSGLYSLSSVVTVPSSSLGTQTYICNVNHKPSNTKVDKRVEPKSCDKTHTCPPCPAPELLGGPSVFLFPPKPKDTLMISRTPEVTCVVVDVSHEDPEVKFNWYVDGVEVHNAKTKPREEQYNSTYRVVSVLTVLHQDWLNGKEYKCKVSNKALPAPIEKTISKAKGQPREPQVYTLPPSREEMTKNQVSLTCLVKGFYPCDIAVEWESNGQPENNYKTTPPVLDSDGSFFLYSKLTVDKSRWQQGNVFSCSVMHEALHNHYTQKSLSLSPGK
light: EIVLTQSPDFQSVTPKEKVTITCRASQSIGSNIHWYQQKPDQSPKLLIKYTSESISGVPSRFSGSGSGTDFTLTINSLEAEDAATYYCQQSNSWPLTFGGGTKVEIKRTVAAPSVFIFPPSDEQLKSGTASVVCLLNNFYPREAKVQWKVDNALQSGNSQESVTEQDSKDSTYSLSSTLTLSKADYEKHKVYACEVTHQGLSSPVTKSFNRGEC
modifications: MC-valcit-PAB-MMAE on the engineered cysteines (CysMab: E152C, S375C, EU numbering); DAR 3.9
- IC50 (nM), cell proliferation/survival (CellTiter-Glo), KMS-21-BM (Human CD48 on cells [1]): 0.062 nM
- IC50 (nM), cell proliferation/survival (CellTiter-Glo), KMS-27 (Human CD48 on cells [1]): 6.1 nM
- IC50 (nM), cell proliferation/survival (CellTiter-Glo), NCI-H929 (Human CD48 on cells [1]): 2.1 nM

B4: NY920-DAPA-VC-MMAE (antibody, human IgG1, kappa)
heavy: EVQLLESGGGLVQPGGSLRLSCAASGFTFSSFAMSWVRQAPGKGLEWVSAISGFGGSTYYADSVKGRFTISRDNSKNTLYLQMNSLRAEDTAVYYCARQFWEDQPFYFDYWGQGTLVTVSSASTKGPSVFPLAPSSKSTSGGTAALGCLVKDYFPCPVTVSWNSGALTSGVHTFPAVLQSSGLYSLSSVVTVPSSSLGTQTYICNVNHKPSNTKVDKRVEPKSCDKTHTCPPCPAPELLGGPSVFLFPPKPKDTLMISRTPEVTCVVVAVSHEDPEVKFNWYVDGVEVHNAKTKPREEQYNSTYRVVSVLTVLHQDWLNGKEYKCKVSNKALAAPIEKTISKAKGQPREPQVYTLPPSREEMTKNQVSLTCLVKGFYPCDIAVEWESNGQPENNYKTTPPVLDSDGSFFLYSKLTVDKSRWQQGNVFSCSVMHEALHNHYTQKSLSLSPGK
light: not shown
modifications: VC-MMAE (MC-valcit-PAB-MMAE) on the engineered cysteines (E152C, S375C, EU numbering)
- Amax (Span), KMS-20 (Human CD48 on cells [8]): 94
- Amax (Span), KMS-21-BM (Human CD48 on cells [8]): 92.9
- Amax (Span), KMS-27 (Human CD48 on cells [8]): 83.9
- Amax (Span), NCI-H929 (Human CD48 on cells [8]): 89.7
- IC50 (nM), cell proliferation/survival (CellTiter-Glo), KMS-20 (Human CD48 on cells [8]): 0.077 nM
- IC50 (nM), cell proliferation/survival (CellTiter-Glo), KMS-21-BM (Human CD48 on cells [8]): 0.026 nM
- IC50 (nM), cell proliferation/survival (CellTiter-Glo), KMS-27 (Human CD48 on cells [8]): 0.028 nM
- IC50 (nM), cell proliferation/survival (CellTiter-Glo), NCI-H929 (Human CD48 on cells [8]): 0.027 nM

B5: NY938-DAPA-VC-MMAE (antibody, human IgG1, kappa)
heavy: QVQLVQSGAEVKKPGASVKVSCKASGYTFTEYTMHWVRQAPGQGLEWMGGINPDTGDTSYNQKFTGRATLTVDKSTSTAYMELSSLRSEDTAVYYCARAQFWTTPRFAYWGQGTLVTVSSASTKGPSVFPLAPSSKSTSGGTAALGCLVKDYFPCPVTVSWNSGALTSGVHTFPAVLQSSGLYSLSSVVTVPSSSLGTQTYICNVNHKPSNTKVDKRVEPKSCDKTHTCPPCPAPELLGGPSVFLFPPKPKDTLMISRTPEVTCVVVAVSHEDPEVKFNWYVDGVEVHNAKTKPREEQYNSTYRVVSVLTVLHQDWLNGKEYKCKVSNKALAAPIEKTISKAKGQPREPQVYTLPPSREEMTKNQVSLTCLVKGFYPCDIAVEWESNGQPENNYKTTPPVLDSDGSFFLYSKLTVDKSRWQQGNVFSCSVMHEALHNHYTQKSLSLSPGK
light: DIQMTQSPSSLSASVGDRVTITCKASQDVGTAVAWYQQKPGKVPKLLIYWASTRHTGVPSRFSGSGSGTDFTLTISSLQPEDVATYYCQQYSTYPITFGQGTKLEIKRTVAAPSVFIFPPSDEQLKSGTASVVCLLNNFYPREAKVQWKVDNALQSGNSQESVTEQDSKDSTYSLSSTLTLSKADYEKHKVYACEVTHQGLSSPVTKSFNRGEC
modifications: VC-MMAE (MC-valcit-PAB-MMAE) on the engineered cysteines (E152C, S375C, EU numbering)
- Amax (Span), KMS-20 (Human CD48 on cells [8]): 99.8
- Amax (Span), KMS-21-BM (Human CD48 on cells [8]): 105
- Amax (Span), KMS-27 (Human CD48 on cells [8]): 108
- Amax (Span), NCI-H929 (Human CD48 on cells [8]): 105
- IC50 (nM), cell proliferation/survival (CellTiter-Glo), KMS-20 (Human CD48 on cells [8]): 0.037 nM
- IC50 (nM), cell proliferation/survival (CellTiter-Glo), KMS-21-BM (Human CD48 on cells [8]): 0.021 nM
- IC50 (nM), cell proliferation/survival (CellTiter-Glo), KMS-27 (Human CD48 on cells [8]): 0.014 nM
- IC50 (nM), cell proliferation/survival (CellTiter-Glo), NCI-H929 (Human CD48 on cells [8]): 0.016 nM

B6: NY938-CysMab-VC-MMAE (antibody, human IgG1, kappa)
heavy: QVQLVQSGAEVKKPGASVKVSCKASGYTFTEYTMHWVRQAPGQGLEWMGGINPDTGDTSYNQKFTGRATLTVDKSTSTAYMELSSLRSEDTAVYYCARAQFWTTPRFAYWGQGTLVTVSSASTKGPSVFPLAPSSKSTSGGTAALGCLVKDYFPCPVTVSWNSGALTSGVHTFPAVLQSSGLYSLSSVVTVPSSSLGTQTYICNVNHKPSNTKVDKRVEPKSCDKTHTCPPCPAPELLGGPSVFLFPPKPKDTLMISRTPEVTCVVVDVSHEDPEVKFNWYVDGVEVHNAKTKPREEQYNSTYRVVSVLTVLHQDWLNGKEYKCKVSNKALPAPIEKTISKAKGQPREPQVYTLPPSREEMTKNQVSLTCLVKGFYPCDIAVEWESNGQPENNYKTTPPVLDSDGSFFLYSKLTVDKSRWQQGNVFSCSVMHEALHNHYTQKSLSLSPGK
light: DIQMTQSPSSLSASVGDRVTITCKASQDVGTAVAWYQQKPGKVPKLLIYWASTRHTGVPSRFSGSGSGTDFTLTISSLQPEDVATYYCQQYSTYPITFGQGTKLEIKRTVAAPSVFIFPPSDEQLKSGTASVVCLLNNFYPREAKVQWKVDNALQSGNSQESVTEQDSKDSTYSLSSTLTLSKADYEKHKVYACEVTHQGLSSPVTKSFNRGEC
modifications: VC-MMAE (MC-valcit-PAB-MMAE) on the engineered cysteines (E152C, S375C, EU numbering)
- Amax (Span), KMS-20 (Human CD48 on cells [8]): 99.2
- Amax (Span), KMS-21-BM (Human CD48 on cells [8]): 105
- Amax (Span), KMS-27 (Human CD48 on cells [8]): 98.6
- Amax (Span), NCI-H929 (Human CD48 on cells [8]): 101
- IC50 (nM), cell proliferation/survival (CellTiter-Glo), KMS-20 (Human CD48 on cells [8]): 0.043 nM
- IC50 (nM), cell proliferation/survival (CellTiter-Glo), KMS-21-BM (Human CD48 on cells [8]): 0.021 nM
- IC50 (nM), cell proliferation/survival (CellTiter-Glo), KMS-27 (Human CD48 on cells [8]): 0.017 nM
- IC50 (nM), cell proliferation/survival (CellTiter-Glo), NCI-H929 (Human CD48 on cells [8]): 0.018 nM
